Target: 人CD64 ECD-his抗原(SINO BIOLOGICAL，货号:10256-H08H) (human) (UniProt P12314)
Assay: ELISA, antibody coated at 67 to 0.0043 nM, CD64 ECD-his at 1 μg/mL

EC50: 1.32 nM
Substance: hIgG1对照组(SIGMA，货号I4506) (antibody)
